Assay results taken from article PMC12136796.
Blank lines part the entries; values can stand above or below the substance they belong to.

Assays:
Experiment in all cases: co-IP
mGFP-PICK1 5K-E (mouse) = mGFP-PICK1 5K-E (mouse) (UniProt Q62083)
mGFP-KIBRA ΔC2 (mouse) = mGFP-KIBRA ΔC2 (mouse) (UniProt Q5SXA9)
mCherry-PICK1 WT (mouse) = mCherry-PICK1 WT (mouse) (UniProt Q62083)
mGFP-KIBRA ΔCCL (mouse) = mGFP-KIBRA ΔCCL (mouse) (UniProt Q5SXA9)
mGFP-KIBRA ΔαBR (mouse) = mGFP-KIBRA ΔαBR (mouse) (UniProt Q5SXA9)
mCherry-KIBRA WT (mouse) = mCherry-KIBRA WT (mouse) (UniProt Q5SXA9)
Chain of mCherry-KIBRA WT (mouse) (Q5SXA9 whole entry): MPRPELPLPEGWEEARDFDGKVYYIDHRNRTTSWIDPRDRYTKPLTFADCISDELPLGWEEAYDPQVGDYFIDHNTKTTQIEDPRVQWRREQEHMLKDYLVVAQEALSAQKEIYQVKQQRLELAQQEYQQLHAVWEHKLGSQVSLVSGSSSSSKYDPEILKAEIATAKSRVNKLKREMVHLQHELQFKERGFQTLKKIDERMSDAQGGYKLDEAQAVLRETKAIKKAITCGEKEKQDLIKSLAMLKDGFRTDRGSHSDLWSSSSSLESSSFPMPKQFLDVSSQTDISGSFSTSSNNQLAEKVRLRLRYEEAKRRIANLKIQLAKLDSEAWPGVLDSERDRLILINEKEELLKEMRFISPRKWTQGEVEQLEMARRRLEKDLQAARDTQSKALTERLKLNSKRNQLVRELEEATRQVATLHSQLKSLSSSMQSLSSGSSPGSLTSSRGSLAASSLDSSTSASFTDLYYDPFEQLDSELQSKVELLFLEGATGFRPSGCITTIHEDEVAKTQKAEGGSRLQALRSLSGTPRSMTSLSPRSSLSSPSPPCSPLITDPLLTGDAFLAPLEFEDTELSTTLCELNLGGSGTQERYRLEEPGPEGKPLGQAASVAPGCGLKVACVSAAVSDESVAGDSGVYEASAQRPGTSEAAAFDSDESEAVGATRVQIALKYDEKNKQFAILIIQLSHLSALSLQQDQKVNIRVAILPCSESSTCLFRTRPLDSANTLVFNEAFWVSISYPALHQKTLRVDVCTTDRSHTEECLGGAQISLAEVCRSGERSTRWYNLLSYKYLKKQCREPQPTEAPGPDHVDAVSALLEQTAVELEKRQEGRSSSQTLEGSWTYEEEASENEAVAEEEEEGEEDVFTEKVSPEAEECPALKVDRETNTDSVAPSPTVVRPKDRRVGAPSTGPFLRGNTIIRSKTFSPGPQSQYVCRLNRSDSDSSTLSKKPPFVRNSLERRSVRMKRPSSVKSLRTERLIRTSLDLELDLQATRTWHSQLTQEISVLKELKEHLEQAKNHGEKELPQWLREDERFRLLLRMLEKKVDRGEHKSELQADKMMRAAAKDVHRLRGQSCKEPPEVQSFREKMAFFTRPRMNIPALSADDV

Chain of mCherry-PICK1 WT (mouse) (Q62083 whole entry): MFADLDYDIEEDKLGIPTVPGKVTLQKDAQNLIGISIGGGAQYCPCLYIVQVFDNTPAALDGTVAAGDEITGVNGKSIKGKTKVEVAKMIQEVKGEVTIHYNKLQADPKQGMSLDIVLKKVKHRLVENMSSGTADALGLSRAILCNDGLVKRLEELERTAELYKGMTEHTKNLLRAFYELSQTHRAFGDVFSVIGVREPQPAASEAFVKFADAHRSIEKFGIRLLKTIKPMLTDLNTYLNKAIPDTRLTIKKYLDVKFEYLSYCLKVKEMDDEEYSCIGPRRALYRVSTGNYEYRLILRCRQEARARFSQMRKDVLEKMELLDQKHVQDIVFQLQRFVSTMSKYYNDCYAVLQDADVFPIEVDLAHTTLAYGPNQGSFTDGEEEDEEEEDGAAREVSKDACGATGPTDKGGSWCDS
Chain of mGFP-KIBRA ΔC2 (Q5SXA9 whole entry, stated change not applied): as the sequence (Q5SXA9 whole entry) above
Chain of mGFP-KIBRA ΔCCL (Q5SXA9 whole entry, stated change not applied): as the sequence (Q5SXA9 whole entry) above
Chain of mGFP-KIBRA ΔαBR (Q5SXA9 whole entry, stated change not applied): as the sequence (Q5SXA9 whole entry) above
Chain of mGFP-PICK1 5K-E (mouse) (Q62083 whole entry): as the sequence (Q62083 whole entry) above
Chain of mGFP-KIBRA ΔWW (Q5SXA9 whole entry, stated change not applied): as the sequence (Q5SXA9 whole entry) above
Chain of mCherry-KIBRA WT (Q5SXA9 whole entry): as above
Chain of mGFP-PICK1 BAR (domain or fragment) (Q62083 whole entry, the tested form may be a part): as the sequence (Q62083 whole entry) above
Chain of mGFP-PICK1 KD-AA (Q62083 whole entry): as above
Chain of Myc-GluA2 (P19491 22-883): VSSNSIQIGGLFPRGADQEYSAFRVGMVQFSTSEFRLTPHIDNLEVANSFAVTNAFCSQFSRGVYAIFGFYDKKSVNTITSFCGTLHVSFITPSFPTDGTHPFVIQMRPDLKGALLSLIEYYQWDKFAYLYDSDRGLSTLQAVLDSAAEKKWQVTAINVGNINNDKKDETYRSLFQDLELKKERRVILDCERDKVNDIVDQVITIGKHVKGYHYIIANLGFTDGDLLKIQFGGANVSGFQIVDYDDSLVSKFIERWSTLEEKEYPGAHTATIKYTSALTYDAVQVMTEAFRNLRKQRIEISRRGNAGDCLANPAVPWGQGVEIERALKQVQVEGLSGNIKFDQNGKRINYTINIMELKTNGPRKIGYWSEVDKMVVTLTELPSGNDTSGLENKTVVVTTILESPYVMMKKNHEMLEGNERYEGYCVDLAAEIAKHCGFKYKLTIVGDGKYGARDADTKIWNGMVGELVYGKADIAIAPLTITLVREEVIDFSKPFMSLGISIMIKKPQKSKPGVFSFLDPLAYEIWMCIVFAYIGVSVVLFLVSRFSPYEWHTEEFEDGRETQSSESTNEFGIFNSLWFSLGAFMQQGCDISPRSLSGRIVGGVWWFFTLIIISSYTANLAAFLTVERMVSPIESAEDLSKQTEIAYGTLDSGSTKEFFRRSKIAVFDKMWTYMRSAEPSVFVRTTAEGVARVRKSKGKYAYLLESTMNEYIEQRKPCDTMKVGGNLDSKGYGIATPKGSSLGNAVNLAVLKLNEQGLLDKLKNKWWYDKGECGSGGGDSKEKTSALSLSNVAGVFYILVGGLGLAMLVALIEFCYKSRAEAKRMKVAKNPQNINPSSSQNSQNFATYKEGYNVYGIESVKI

Substance: Myc-GluA2 (from UniProt P19491 22-883) (receptor)
co-precipitated GluA2 relative to PICK1 WT (mCherry-KIBRA co-expressed) (mGFP-PICK1 5K-E (mouse)): 0.27 fold of WT

Substance: mGFP-KIBRA ΔCCL (from UniProt Q5SXA9 1-1104) (natural protein)
co-precipitated mGFP-KIBRA relative to KIBRA WT (mGFP-KIBRA ΔCCL (mouse)): 1.6 fold of WT
co-precipitated KIBRA relative to KIBRA WT (mCherry-PICK1 WT (mouse)): 1.48 fold of WT

Substance: mGFP-KIBRA ΔαBR (from UniProt Q5SXA9 1-1104) (natural protein)
co-precipitated KIBRA relative to KIBRA WT (mCherry-PICK1 WT (mouse)): 1.94 fold of WT
co-precipitated mGFP-KIBRA relative to KIBRA WT (mGFP-KIBRA ΔαBR (mouse)): 1.55 fold of WT

Further lines, results first:

co-precipitated KIBRA relative to PICK1 WT (mGFP-PICK1 5K-E (mouse)): 0.63 fold of WT
Substance: mCherry-KIBRA WT (from UniProt Q5SXA9 1-1104) (natural protein)

co-precipitated mGFP-KIBRA relative to KIBRA WT (mGFP-KIBRA ΔC2 (mouse)): 1.36 fold of WT
co-precipitated KIBRA relative to KIBRA WT (mCherry-PICK1 WT (mouse)): 1.29 fold of WT
Substance: mGFP-KIBRA ΔC2 (from UniProt Q5SXA9 1-1104) (natural protein)

co-precipitated KIBRA relative to KIBRA WT (mCherry-PICK1 WT (mouse)): 1.79 fold of WT
Substance: mGFP-KIBRA ΔWW (from UniProt Q5SXA9 1-1104) (natural protein)

co-precipitated PICK1 relative to PICK1 WT (mCherry-KIBRA WT (mouse)): 1.62 fold of WT
Substance: mGFP-PICK1 BAR (domain or fragment)

co-precipitated PICK1 relative to PICK1 WT (mCherry-KIBRA WT (mouse)): 0.81 fold of WT
Substance: mGFP-PICK1 KD-AA (from UniProt Q62083 1-416) (natural protein)
